Results from PMC7988105.

Columns and labels:
[1] = target: PTPδA3B– extracellular domain fused to Fc; assay: pull-down; conditions: parent: est. 100; read off a plot
[2] = target: NRXN1β (lacking SS4) Fc fusion used as bait in the pull-down; assay: pull-down; soluble recombinant proteins mixed at 0.03 μM each in HBSS, 2 mM CaCl2, 1 mM MgCl2, 3 h, then Protein A-Sepharose 1 h, room temperature; NLGN3-His6 detected with anti-His
[3] = target: NLGN3 ECD MF/IS mutant (M614I F615S) with His6 tag (mouse) (UniProt Q8BYM5); assay: ITC; NLGN3 ECD (20 µM) in the cell, PTPδ Ig1–Fn1 (200 µM) injected; 20 mM Tris-HCl pH 8.0, 150 mM NaCl, 25 °C; one-site model
[4] = target: mouse NLGN3 ECD (residues 35–684) with C-terminal His6 tag (mouse) (UniProt Q8BYM5); assay: as above
[5] = target: NLGN3 ECD HSE/AAA mutant (H279A S280A E281A) with His6 tag (mouse) (UniProt Q8BYM5); assay: as above
Sequence of NLGN3 ECD HSE/AAA mutant (H279A S280A E281A) with His6 tag (mouse) (Q8BYM5 35-684 H279A/S280A/E281A): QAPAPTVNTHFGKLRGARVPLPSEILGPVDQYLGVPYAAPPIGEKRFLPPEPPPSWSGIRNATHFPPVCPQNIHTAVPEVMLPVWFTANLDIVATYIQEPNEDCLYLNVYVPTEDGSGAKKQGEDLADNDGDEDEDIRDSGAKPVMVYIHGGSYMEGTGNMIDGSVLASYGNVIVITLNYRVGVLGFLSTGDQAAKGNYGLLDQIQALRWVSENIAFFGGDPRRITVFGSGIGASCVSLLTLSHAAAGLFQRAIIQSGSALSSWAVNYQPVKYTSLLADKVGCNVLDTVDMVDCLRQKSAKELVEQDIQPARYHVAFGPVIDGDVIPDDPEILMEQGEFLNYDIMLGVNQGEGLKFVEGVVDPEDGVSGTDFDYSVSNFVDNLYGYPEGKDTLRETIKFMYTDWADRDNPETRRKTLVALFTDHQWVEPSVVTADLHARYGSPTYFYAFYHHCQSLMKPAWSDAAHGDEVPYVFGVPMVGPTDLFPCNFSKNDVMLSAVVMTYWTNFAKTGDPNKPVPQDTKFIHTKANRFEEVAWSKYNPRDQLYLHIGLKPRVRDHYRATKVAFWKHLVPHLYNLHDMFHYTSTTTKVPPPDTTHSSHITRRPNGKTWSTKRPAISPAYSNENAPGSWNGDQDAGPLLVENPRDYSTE

Sequence of NLGN3 ECD MF/IS mutant (M614I F615S) with His6 tag (mouse) (Q8BYM5 35-684 M614I/F615S): as the sequence (Q8BYM5 35-684 H279A/S280A/E281A) above, with A245H, A246S, A247E, M580I, F581S counted along it
Sequence of mouse NLGN3 ECD (residues 35–684) with C-terminal His6 tag (mouse) (Q8BYM5 35-684): as the sequence (Q8BYM5 35-684 H279A/S280A/E281A) above, with A245H, A246S, A247E counted along it

Row | Substance | percent of parent [1] [% WT] | other results
1 | mouse NLGN3 ECD (residues 35–684) with C-terminal His6 tag (from UniProt Q8BYM5) M614I; F615S | 14 | –
2 | mouse NLGN3 ECD (residues 35–684) with C-terminal His6 tag (from UniProt Q8BYM5) D362A; E372A; N375A | 16 | –
3 | NLGN3 ECD R448C mutant (R/C; equivalent to human R451C) with His6 tag (from UniProt Q8BYM5 35-684) (domain or fragment) | – | pulldown efficiency (% of wild-type) (% of wild-type) [2]: 40
4 | PTPδA3B– Ig1–Fn1 (domain or fragment) | – | Kd [3]: 27 µM; Kd [4]: 4.4 µM; Kd [5]: 1.4 µM

More lines, main results first:

Row | percent of parent [1] [% WT] | Substance | other results
5 | 11 | mouse NLGN3 ECD (residues 35–684) with C-terminal His6 tag (from UniProt Q8BYM5) M614A; F615A | –
6 | 88 | mouse NLGN3 ECD (residues 35–684) with C-terminal His6 tag (from UniProt Q8BYM5) H279A; S280A; E281A | –
